Laboratory results published in patent US20160115500A1 (University of California, published 2016).

Target: T1, GAL4 activation domain fusion (ACT) to HAB1 (UniProt Q9CAJ0 23-511, limits assumed)
T1 construct: pACT-HAB1 fusion in yeast reporter strains; also called pACT-HAB1
T1 sequence (looked up): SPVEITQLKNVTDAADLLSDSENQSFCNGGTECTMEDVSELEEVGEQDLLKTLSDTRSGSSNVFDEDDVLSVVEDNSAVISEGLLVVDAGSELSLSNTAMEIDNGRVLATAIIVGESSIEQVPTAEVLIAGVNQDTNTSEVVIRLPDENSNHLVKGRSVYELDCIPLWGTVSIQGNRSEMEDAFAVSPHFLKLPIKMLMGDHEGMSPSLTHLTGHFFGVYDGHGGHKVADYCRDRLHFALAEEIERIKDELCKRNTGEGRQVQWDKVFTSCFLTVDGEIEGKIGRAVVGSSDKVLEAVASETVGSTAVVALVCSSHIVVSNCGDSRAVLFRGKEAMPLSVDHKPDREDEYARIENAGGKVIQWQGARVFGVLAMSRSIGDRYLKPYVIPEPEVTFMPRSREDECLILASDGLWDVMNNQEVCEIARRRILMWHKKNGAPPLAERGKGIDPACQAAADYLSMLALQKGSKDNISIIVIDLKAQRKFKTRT
Assay: yeast two-hybrid, X-gal; lowest dichlobenil concentration giving signal

Row | Binder | Threshold [µM]
1 | PYR1^K59R,V164A (receptor, not shown: small tags and cut ends, pBD-PYR1 fusion in yeast) MPSELTPEERSELKNSIAEFHTYQLDPGSCSSLHAQRIHAPPELVWSIVRRFDKPQTYRHFIKSCSVEQNFEMRVGCTRDVIVISGLPANTSTERLDILDDERRVTGFSIIGGEHRLTNYKSVTTVHRFEKENRIWTVVLESYVVDMPEGNSEDDTRMFADTVAKLNLQKLATVAEAMARNSGDGSGSQVT | 100
2 | PYR1^K59R,V164N (receptor, not shown: small tags and cut ends, pBD-PYR1 fusion in yeast) MPSELTPEERSELKNSIAEFHTYQLDPGSCSSLHAQRIHAPPELVWSIVRRFDKPQTYRHFIKSCSVEQNFEMRVGCTRDVIVISGLPANTSTERLDILDDERRVTGFSIIGGEHRLTNYKSVTTVHRFEKENRIWTVVLESYVVDMPEGNSEDDTRMFADTVNKLNLQKLATVAEAMARNSGDGSGSQVT | 100
3 | PYR1^K59R,V164M (receptor, not shown: small tags and cut ends, pBD-PYR1 fusion in yeast) MPSELTPEERSELKNSIAEFHTYQLDPGSCSSLHAQRIHAPPELVWSIVRRFDKPQTYRHFIKSCSVEQNFEMRVGCTRDVIVISGLPANTSTERLDILDDERRVTGFSIIGGEHRLTNYKSVTTVHRFEKENRIWTVVLESYVVDMPEGNSEDDTRMFADTVMKLNLQKLATVAEAMARNSGDGSGSQVT | 100
4 | PYR1^K59R,V164G (receptor, not shown: small tags and cut ends, pBD-PYR1 fusion in yeast) MPSELTPEERSELKNSIAEFHTYQLDPGSCSSLHAQRIHAPPELVWSIVRRFDKPQTYRHFIKSCSVEQNFEMRVGCTRDVIVISGLPANTSTERLDILDDERRVTGFSIIGGEHRLTNYKSVTTVHRFEKENRIWTVVLESYVVDMPEGNSEDDTRMFADTVGKLNLQKLATVAEAMARNSGDGSGSQVT | 100
5 | PYR1^K59R,V164Q (receptor, not shown: small tags and cut ends, pBD-PYR1 fusion in yeast) MPSELTPEERSELKNSIAEFHTYQLDPGSCSSLHAQRIHAPPELVWSIVRRFDKPQTYRHFIKSCSVEQNFEMRVGCTRDVIVISGLPANTSTERLDILDDERRVTGFSIIGGEHRLTNYKSVTTVHRFEKENRIWTVVLESYVVDMPEGNSEDDTRMFADTVQKLNLQKLATVAEAMARNSGDGSGSQVT | 100
6 | PYR1^K59R,V164E (receptor, not shown: small tags and cut ends, pBD-PYR1 fusion in yeast) MPSELTPEERSELKNSIAEFHTYQLDPGSCSSLHAQRIHAPPELVWSIVRRFDKPQTYRHFIKSCSVEQNFEMRVGCTRDVIVISGLPANTSTERLDILDDERRVTGFSIIGGEHRLTNYKSVTTVHRFEKENRIWTVVLESYVVDMPEGNSEDDTRMFADTVEKLNLQKLATVAEAMARNSGDGSGSQVT | 100
7 | PYR1^K59R,V164C (receptor, not shown: small tags and cut ends, pBD-PYR1 fusion in yeast) MPSELTPEERSELKNSIAEFHTYQLDPGSCSSLHAQRIHAPPELVWSIVRRFDKPQTYRHFIKSCSVEQNFEMRVGCTRDVIVISGLPANTSTERLDILDDERRVTGFSIIGGEHRLTNYKSVTTVHRFEKENRIWTVVLESYVVDMPEGNSEDDTRMFADTVCKLNLQKLATVAEAMARNSGDGSGSQVT | 100
8 | PYR1^K59R,V164F (receptor, not shown: small tags and cut ends, pBD-PYR1 fusion in yeast) MPSELTPEERSELKNSIAEFHTYQLDPGSCSSLHAQRIHAPPELVWSIVRRFDKPQTYRHFIKSCSVEQNFEMRVGCTRDVIVISGLPANTSTERLDILDDERRVTGFSIIGGEHRLTNYKSVTTVHRFEKENRIWTVVLESYVVDMPEGNSEDDTRMFADTVFKLNLQKLATVAEAMARNSGDGSGSQVT | 100
9 | PYR1^K59R,V164L (receptor, not shown: small tags and cut ends, pBD-PYR1 fusion in yeast) MPSELTPEERSELKNSIAEFHTYQLDPGSCSSLHAQRIHAPPELVWSIVRRFDKPQTYRHFIKSCSVEQNFEMRVGCTRDVIVISGLPANTSTERLDILDDERRVTGFSIIGGEHRLTNYKSVTTVHRFEKENRIWTVVLESYVVDMPEGNSEDDTRMFADTVLKLNLQKLATVAEAMARNSGDGSGSQVT | 100
10 | PYR1^K59R,V164H (receptor, not shown: small tags and cut ends, pBD-PYR1 fusion in yeast) MPSELTPEERSELKNSIAEFHTYQLDPGSCSSLHAQRIHAPPELVWSIVRRFDKPQTYRHFIKSCSVEQNFEMRVGCTRDVIVISGLPANTSTERLDILDDERRVTGFSIIGGEHRLTNYKSVTTVHRFEKENRIWTVVLESYVVDMPEGNSEDDTRMFADTVHKLNLQKLATVAEAMARNSGDGSGSQVT | 100
